This note sets out measurements from publication doi:10.1101/2025.02.24.640013, “Exploration of the influence of environmental changes on the conformational and amyloidogenic landscapes of the zinc finger protein DPF3a by combining biophysical and molecular dynamics approaches” (bioRxiv, 2025).

The data set concerns the molecule itself. Nature of the data set: negative-stain TEM + far-UV CD + autofluorescence of amyloid fibril formation; tag-free DPF3a alone, ~4.5 uM (0.18 mg/mL), incubated at ~25 °C for seven days in 50 mM Tris-HCl pH 8, 150 mM NaCl (reference); also at pH 12 in 150 mM NaCl and at pH 8 in 300 and 500 mM NaCl, where fibrils formed later, shorter and in lower number.

B1: double PHD fingers 3 (DPF3) protein, isoform DPF3a, full-length (natural protein, human, UniProt Q92784-2 1-357, looked up)
chain: MATVIHNPLKALGDQFYKEAIEHCRSYNSRLCAERSVRLPFLDSQTGVAQNNCYIWMEKRHRGPGLAPGQLYTYPARCWRKKRRLHPPEDPKLRLLEIKPEVELPLKKDGFTSESTTLEALLRGEGVEKKVDAREEESIQEIQRVLENDENVEEGNEEEDLEEDIPKRKNRTRGRARGSAGGRRRHDAASQEDHDKPYVCDICGKRYKNRPGLSYHYAHTHLASEEGDEAQDQETRSPPNHRNENHRPQKGPDGTVIPNNYCDFCLGGSNMNKKSGRPEELVSCADCGRSAHLGGEGRKEKEAAAAARTTEDLFGSTSESDTSTFHGFDEDDLEEPRSCRGRRSGRGSPTADKKGSC
notes: Human DPF3, isoform DPF3a, full length; molecular mass 40244 Da; Metalloprotein with a C2H2 zinc finger; also called full-length DPF3a; source: E. coli BL21 Rosetta (DE3), purified (GSTrap FF, on-column TEV cleavage of the GST tag); not shown: GST, N-terminal, cleaved
As for B1, the binding result is reported as “binds”.
